In experiment [1] the target is T1, anti-TfR 531v25-Fab-FcOL-GAA.
T1 construct: Monovalent Fab-FcOL with GAA fused to the C-terminus of the Fc polypeptide
The experiment is described as follows: SPR, His-tagged TfR ectodomain captured on anti-His, 1:1 fit. On the procedure: (§1) Binding of the humanized Fab variants to human, cynomolgus and mouse TfR was assessed using SPR at pH 7.4. Experiments were run on a Bruker MASS-2 instrument with HBS-EP+ as running buffer and sample diluent (Cytiva Life Sciences, #BR100826). HCA sensor chips (Bruker, #1862614) were immobilized with anti-His antibody (His capture kit, Cytiva Life Sciences, #28995056) following manufacturer's instructions. About 10,000 RU of anti-His was obtained. His-tagged hTfR ectodomain (SEQ ID NO: 39), cTfR ectodomain (SEQ ID NO: 40) or mouse TfR ectodomain (SEQ ID NO: 41) (5 μg/ml) was captured for 1 min at 10 μL/min. Concentration series of the humanized Fab variants were then injected for 4 min at 30 μL/min over hTfR surfaces and dissociation was monitored for 5 min. Surface was regenerated with one 1 min pulse of 10 mM glycine-HCl at pH 1.5.
(§2) Affinity by SPR was also measured for the 531v25-mAb-GAAx2 molecule (a GAA sequence fused to both HCs).

Experiment [2] concerns the target T2, anti-TfR 531v25-Fab-FcOL-LC-GAA (Homo sapiens (Human), UniProt P0DOX5 223-448 = IgG part).
T2 construct: Monovalent Fab-FcOL with GAA fused to the C-terminus of the light chain
The description is as above. On the procedure: as §1, §2

T1 sequence (chain, as listed by the source): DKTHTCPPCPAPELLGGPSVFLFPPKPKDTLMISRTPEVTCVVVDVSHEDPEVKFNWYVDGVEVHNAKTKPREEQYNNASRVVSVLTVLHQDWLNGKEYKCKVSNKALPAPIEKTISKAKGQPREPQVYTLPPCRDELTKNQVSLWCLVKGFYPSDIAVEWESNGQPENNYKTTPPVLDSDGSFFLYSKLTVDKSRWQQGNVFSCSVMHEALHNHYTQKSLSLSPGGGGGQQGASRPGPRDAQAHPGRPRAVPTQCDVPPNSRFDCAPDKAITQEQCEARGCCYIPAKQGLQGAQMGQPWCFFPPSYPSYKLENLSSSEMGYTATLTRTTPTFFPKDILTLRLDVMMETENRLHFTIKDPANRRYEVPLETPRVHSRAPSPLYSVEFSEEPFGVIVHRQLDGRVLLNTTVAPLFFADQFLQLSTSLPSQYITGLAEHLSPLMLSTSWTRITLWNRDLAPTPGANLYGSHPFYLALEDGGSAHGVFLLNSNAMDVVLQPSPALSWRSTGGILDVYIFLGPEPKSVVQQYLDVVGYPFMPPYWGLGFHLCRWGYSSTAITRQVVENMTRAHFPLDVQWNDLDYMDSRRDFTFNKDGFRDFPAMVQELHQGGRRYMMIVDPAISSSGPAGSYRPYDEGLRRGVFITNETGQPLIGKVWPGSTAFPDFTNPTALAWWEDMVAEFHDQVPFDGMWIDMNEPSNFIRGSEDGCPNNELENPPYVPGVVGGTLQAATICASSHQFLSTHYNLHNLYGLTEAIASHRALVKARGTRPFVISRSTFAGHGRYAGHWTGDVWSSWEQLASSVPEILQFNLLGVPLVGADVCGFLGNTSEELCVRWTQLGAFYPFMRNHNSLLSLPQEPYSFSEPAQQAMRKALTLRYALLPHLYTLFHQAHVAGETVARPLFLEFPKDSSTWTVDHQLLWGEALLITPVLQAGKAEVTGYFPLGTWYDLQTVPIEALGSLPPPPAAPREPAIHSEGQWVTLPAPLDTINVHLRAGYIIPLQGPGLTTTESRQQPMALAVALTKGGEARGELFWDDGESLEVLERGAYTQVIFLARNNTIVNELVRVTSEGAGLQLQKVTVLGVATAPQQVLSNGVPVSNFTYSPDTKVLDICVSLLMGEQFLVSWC

B1: His-tagged cynomolgus monkey TfR ectodomain (cyTFRC_89_760; mature protein) (receptor)
chain: CKGVEPKTECERLAGTESPAREEPEEDFPAAPRLYWDDLKRKLSEKLDTTDFTSTIKLLNENLYVPREAGSQKDENLALYIENQFREFKLSKVWRDQHFVKIQVKDSAQNSVIIVDKNGGLVYLVENPGGYVAYSKAATVTGKLVHANFGTKKDFEDLDSPVNGSIVIVRAGKITFAEKVANAESLNAIGVLIYMDQTKFPIVKADLSFFGHAHLGTGDPYTPGFPSFNHTQFPPSQSSGLPNIPVQTISRAAAEKLFGNMEGDCPSDWKTDSTCKMVTSENKSVKLTVSNVLKETKILNIFGVIKGFVEPDHYVVVGAQRDAWGPGAAKSSVGTALLLKLAQMFSDMVLKDGFQPSRSIIFASWSAGDFGSVGATEWLEGYLSSLHLKAFTYINLDKAVLGTSNFKVSASPLLYTLIEKTMQDVKHPVTGRSLYQDSNWASKVEKLTLDNAAFPFLAYSGIPAVSFCFCEDTDYPYLGTTMDTYKELVERIPELNKVARAAAEVAGQFVIKLTHDTELNLDYERYNSQLLLFLRDLNQYRADVKEMGLSLQWLYSARGDFFRATSRLTTDFRNAEKRDKFVMKKLNDRVMRVEYYFLSPYVSPKESPFRHVFWGSGSHTLSALLESLKLRRQNNSAFNETLFRNQLALATWTIQGAANALSGDVWDIDNEF
notes: also called cTfR; cTfR ectodomain
For the molecule B1, the Kd is 89 nM in experiment [1] and 154 nM in experiment [2].

The record behind these values is patent US20240226314A1 (Sanofi, published 2024).
